Assay results from paper doi:10.1101/2021.03.26.437179 (bioRxiv, 2021).

What was measured:
Experiment in all cases: pull-down
GST-PUB25 = target: T1, GST-PUB25 (Arabidopsis thaliana, UniProt Q9LT79 1-421)
T1 sequence (looked up): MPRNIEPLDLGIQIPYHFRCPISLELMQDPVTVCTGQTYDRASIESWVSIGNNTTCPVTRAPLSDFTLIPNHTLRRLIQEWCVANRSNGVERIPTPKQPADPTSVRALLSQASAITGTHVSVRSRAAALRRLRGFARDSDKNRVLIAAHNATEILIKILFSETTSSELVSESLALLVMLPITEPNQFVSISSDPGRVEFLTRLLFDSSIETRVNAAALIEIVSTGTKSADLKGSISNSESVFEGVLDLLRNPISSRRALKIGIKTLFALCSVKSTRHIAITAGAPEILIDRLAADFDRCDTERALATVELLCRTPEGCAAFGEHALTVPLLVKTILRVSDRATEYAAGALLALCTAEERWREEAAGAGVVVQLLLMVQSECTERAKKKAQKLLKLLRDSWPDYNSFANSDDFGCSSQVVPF

GST-PUB26 = target: T2, GST-PUB26 (Arabidopsis thaliana, UniProt Q9FXA4 1-421)
T2 sequence (looked up): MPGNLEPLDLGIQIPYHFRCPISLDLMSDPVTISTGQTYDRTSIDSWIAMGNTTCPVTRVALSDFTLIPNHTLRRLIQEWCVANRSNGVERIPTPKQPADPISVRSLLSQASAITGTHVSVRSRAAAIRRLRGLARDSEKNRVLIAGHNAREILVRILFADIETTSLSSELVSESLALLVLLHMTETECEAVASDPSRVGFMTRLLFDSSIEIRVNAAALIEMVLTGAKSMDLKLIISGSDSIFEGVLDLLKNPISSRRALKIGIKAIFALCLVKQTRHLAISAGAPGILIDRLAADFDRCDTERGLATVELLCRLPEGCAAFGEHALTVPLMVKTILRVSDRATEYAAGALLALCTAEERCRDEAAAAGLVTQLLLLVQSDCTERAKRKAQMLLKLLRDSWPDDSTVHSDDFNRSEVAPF

HIS-PUB26 = target: T3, HIS-PUB26 (Arabidopsis thaliana, UniProt Q9FXA4 1-421)
T3 sequence (looked up): T2 sequence (looked up)

binding result (GST-PUB25): binds
binding result (GST-PUB26): binds
binding result (HIS-PUB26): binds
B1: MBP-MYB6 (natural protein, Arabidopsis thaliana, UniProt Q38851 1-236, looked up)
chain: MGRSPCCEKAHTNKGAWTKEEDQRLVDYIRNHGEGCWRSLPKSAGLLRCGKSCRLRWINYLRPDLKRGNFTDDEDQIIIKLHSLLGNKWSLIAGRLPGRTDNEIKNYWNTHIKRKLLSHGIDPQTHRQINESKTVSSQVVVPIQNDAVEYSFSNLAVKPKTENSSDNGASTSGTTTDEDLRQNGECYYSDNSGHIKLNLDLTLGFGSWSGRIVGVGSSADSKPWCDPVMEARLSLL
